Publication PMC7907199, “Prokaryotic Argonaute from Archaeoglobus fulgidus interacts with DNA as a homodimer” (Scientific Reports, 2020)
Values belong to the molecule of their own block, whether it stands above or below them.

Columns and labels:
[1] = molecular target: AfAgoΔ (dimerization mutant of AfAgo lacking residues 296–303) (Archaeoglobus fulgidus) (UniProt O28951)
[2] = molecular target: the molecule itself; assay: SEC-MALS; apo proteins without nucleic acids; 1.0 mg/mL (20 µM monomer), 2.0 mL injected; HiLoad 16/60 Superdex 200; 100 mM Tris–HCl pH 8.0, 1000 mM NaCl, 0.04% NaN3; dimer to monomers
[3] = molecular target: the molecule itself; assay: cell-based or functional assay
[4] = molecular target: T1, AfAgoΔ (dimerization mutant) (Archaeoglobus fulgidus (ATCC 49558), UniProt O28951 1-427, del296-303); assay: SEC-MALS; 5 mM MgCl2; 5 uM protein monomer, 5 uM duplex; major peak 1:1 protein:DNA; SEC-MALS of complexes: 15 mM Tris-HCl pH 8.0, 150 mM NaCl, 5 mM MgCl2, 0.5 mM DTT, 0.04% NaN3; EMSA, AFM and smFRET buffers not in the material; conditions: protein: recombinant; blunt; self-complementary, 2 copies of the strand
T1 sequence: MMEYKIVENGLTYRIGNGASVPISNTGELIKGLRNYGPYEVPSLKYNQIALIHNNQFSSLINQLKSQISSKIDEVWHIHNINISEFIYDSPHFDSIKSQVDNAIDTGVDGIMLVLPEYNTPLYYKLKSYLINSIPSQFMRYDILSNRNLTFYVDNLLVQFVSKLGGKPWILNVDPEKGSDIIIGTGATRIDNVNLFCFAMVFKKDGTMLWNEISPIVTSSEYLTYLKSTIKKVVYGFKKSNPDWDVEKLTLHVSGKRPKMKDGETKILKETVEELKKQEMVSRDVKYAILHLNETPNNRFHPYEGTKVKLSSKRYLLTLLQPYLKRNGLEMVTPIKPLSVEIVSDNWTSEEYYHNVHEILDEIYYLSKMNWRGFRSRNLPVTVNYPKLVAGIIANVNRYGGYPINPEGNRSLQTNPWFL

WT AfAgo = molecular target: T2, WT AfAgo (Archaeoglobus fulgidus (ATCC 49558), UniProt O28951 1-427); assay: SEC-MALS; 5 mM MgCl2; 5 uM protein monomer, 5 uM duplex; mostly 2:2 protein:DNA; SEC-MALS of complexes: 15 mM Tris-HCl pH 8.0, 150 mM NaCl, 5 mM MgCl2, 0.5 mM DTT, 0.04% NaN3; EMSA, AFM and smFRET buffers not in the material; conditions: protein: recombinant; chain copies: 2; blunt; self-complementary, 2 copies of the strand
T2 sequence: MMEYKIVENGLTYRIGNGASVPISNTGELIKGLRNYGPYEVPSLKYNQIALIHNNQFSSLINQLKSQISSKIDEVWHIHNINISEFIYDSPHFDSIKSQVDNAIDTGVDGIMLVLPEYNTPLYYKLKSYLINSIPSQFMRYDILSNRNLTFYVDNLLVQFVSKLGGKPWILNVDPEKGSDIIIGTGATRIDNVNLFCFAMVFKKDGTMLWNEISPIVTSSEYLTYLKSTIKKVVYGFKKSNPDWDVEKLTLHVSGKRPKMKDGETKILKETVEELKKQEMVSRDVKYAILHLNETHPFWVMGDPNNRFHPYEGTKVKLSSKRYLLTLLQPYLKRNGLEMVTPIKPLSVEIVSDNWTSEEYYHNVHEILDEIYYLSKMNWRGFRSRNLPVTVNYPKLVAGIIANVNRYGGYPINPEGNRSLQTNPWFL

AFM: DNA loops, % of protein–DNA complexes [1]: 26%
Molecule: AfAgoΔ (dimerization mutant of AfAgo lacking residues 296–303) (from UniProt O28951 1-427) (natural protein)

B1: WT AfAgo (prokaryotic Argonaute from Archaeoglobus fulgidus, full-length wild type) (natural protein, UniProt O28951 1-427, looked up)
chain: MMEYKIVENGLTYRIGNGASVPISNTGELIKGLRNYGPYEVPSLKYNQIALIHNNQFSSLINQLKSQISSKIDEVWHIHNINISEFIYDSPHFDSIKSQVDNAIDTGVDGIMLVLPEYNTPLYYKLKSYLINSIPSQFMRYDILSNRNLTFYVDNLLVQFVSKLGGKPWILNVDPEKGSDIIIGTGATRIDNVNLFCFAMVFKKDGTMLWNEISPIVTSSEYLTYLKSTIKKVVYGFKKSNPDWDVEKLTLHVSGKRPKMKDGETKILKETVEELKKQEMVSRDVKYAILHLNETHPFWVMGDPNNRFHPYEGTKVKLSSKRYLLTLLQPYLKRNGLEMVTPIKPLSVEIVSDNWTSEEYYHNVHEILDEIYYLSKMNWRGFRSRNLPVTVNYPKLVAGIIANVNRYGGYPINPEGNRSLQTNPWFL
notes: The printed theoretical Mw of the monomer in the assays (50.8 kDa) is 49.2 kDa plus the 1.63 kDa tag, so the tag was on the protein; In some assays the protein carried a 5'-phosphorylated DNA duplex (MZ-1289) or a long DNA fragment; also called apo-AfAgo; source: E. coli BL21(DE3), purified (Ni2+ HiTrap chelating, RNase A/T1 treatment, HiTrap Heparin, Superdex 200)
stoichiometry N [2]: 2
smFRET in solution: DNA looping efficiency K (ratio of looped to unlooped dual-labelled 569 bp DNA) against WT AfAgo concentration; maximum at 2 nM, lower at higher concentrations [3]: 2.5

B2: MZ-1289 oligoduplex (dsDNA)
DNA 1: ATTGTACGTACAAT
DNA 2: ATTGTACGTACAAT
modifications: 5'-phosphate
binding result [4]: binds
binding result (WT AfAgo): binds
